# Measured values as given in patent US20150344570A1 (published 2015).
# T1: FcγRIIb extracellular domain with C-terminal His tag (human, UniProt P31994 43-217)
# T1 construct: extracellular domain; also called FcgRIIb; CD32B; not shown: His tag at the C terminus
# T1 sequence (looked up): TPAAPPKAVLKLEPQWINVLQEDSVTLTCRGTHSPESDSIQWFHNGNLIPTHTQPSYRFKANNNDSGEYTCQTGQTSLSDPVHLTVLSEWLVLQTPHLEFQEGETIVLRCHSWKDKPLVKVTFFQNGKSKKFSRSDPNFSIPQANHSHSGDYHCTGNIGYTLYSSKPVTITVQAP
# T2: FcγRIIb (human, UniProt P31994 43-217)
# T2 construct: extracellular domain; Soluble extracellular domain with a C-terminal His tag, expressed in FreeStyle293 cells; also called FcgRIIb; 2b; not shown: His tag attached to the C terminus
# T2 sequence (looked up): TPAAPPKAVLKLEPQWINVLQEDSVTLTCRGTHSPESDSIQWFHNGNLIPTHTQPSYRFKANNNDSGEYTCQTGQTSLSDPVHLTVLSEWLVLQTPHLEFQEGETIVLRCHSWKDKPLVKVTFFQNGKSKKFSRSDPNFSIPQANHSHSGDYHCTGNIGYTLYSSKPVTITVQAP
# How the values were obtained:
# [1] = target: T3, FcγRIa extracellular domain with C-terminal His tag (human, UniProt P12314 16-292); experiment: SPR; He/Con_1a divided by He/Con_2b (FcγRIa against FcγRIIb)
# T3 construct: extracellular domain; also called FcgRI; CD64; not shown: His tag at the C terminus
# T3 sequence (P12314 16-292): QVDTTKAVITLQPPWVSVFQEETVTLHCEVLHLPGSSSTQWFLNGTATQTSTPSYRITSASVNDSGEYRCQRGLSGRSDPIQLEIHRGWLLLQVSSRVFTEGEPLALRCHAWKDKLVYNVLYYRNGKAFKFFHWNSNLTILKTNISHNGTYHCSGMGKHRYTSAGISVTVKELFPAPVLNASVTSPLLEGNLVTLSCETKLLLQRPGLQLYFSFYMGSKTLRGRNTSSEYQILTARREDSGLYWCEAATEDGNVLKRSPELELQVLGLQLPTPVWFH
# [2] = target: T1, FcγRIIb extracellular domain with …; experiment: SPR (Biacore), antibody captured, FcγR analyte; relative to GpH7-A5/GpH7-B3/GpL16-k0 = 100
# [3] = target: T3, FcγRIa extracellular domain with …; experiment: as above
# FcγRIIb = target: T2, FcγRIIb; experiment: SPR (Biacore), antibody captured on chip, FcγR as analyte
# FcγRIIIa [4] = target: T4, FcγRIIIa (human, UniProt P08637 17-208); experiment: as above
# T4 construct: extracellular domain; Soluble extracellular domain with a C-terminal His tag; also called FcgRIIIa; 3a; not shown: His tag attached to the C terminus
# T4 sequence (P08637 17-208): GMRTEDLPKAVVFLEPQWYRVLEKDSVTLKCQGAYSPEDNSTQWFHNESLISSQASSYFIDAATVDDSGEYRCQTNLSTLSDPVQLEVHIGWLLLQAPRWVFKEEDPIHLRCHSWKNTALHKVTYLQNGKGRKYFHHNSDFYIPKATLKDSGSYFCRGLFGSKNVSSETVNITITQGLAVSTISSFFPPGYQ
# FcγRIIIa [5] = target: T4, FcγRIIIa; experiment: SPR; He/Con_3a (FcγRIIIa) divided by He/Con_2b (FcγRIIb)
Binder,He_1a/2b (Ia/IIb) [1] [ratio],He/Con_2b [2],He/Con_1a [3],He/Con_2b (FcγRIIb),He/Con_3a (FcγRIIIa [4]),He_3a/2b (IIIa/IIb) (FcγRIIIa [5]) [ratio]
"GpH7-A5/GpH7-B3 variant G236_06M/GpL16-k0 (antibody, human IgG1, kappa, Heterodimerized anti-glypican-3 IgG1; mutation only in the GpH7-B3 H chain; also called He Ab) heavy 1: not shown heavy 2: not shown light: DIVMTQSPLSLPVTPGEPASISCQASESLVHSNRNTYLHWYLQKPGQSPQLLIYKVSNRFSGVPDRFSGSGSGTDFTLKISRVEAEDVGVYYCSQNTHVPPTFGQGTKVEIERTVAAPSVFIFPPSDEQLKSGTASVVCLLNNFYPREAKVQWKVDNALQSGNSQESVTEQDSKDSTYSLSSTLTLSKADYEKHKVYACEVTHQGLSSPVTKSFNRGEC",2.13,45.5 % of HeCon Ab,96.7 % of HeCon Ab,,,
"GpH7-A5/GpH7-B3 variant S239_11K/GpL16-k0 (antibody, human IgG1, kappa, Heterodimerized anti-glypican-3 IgG1; the mutation is in the GpH7-B3 chain only; also called He Ab) heavy 1: not shown heavy 2: not shown light: DIVMTQSPLSLPVTPGEPASISCQASESLVHSNRNTYLHWYLQKPGQSPQLLIYKVSNRFSGVPDRFSGSGSGTDFTLKISRVEAEDVGVYYCSQNTHVPPTFGQGTKVEIERTVAAPSVFIFPPSDEQLKSGTASVVCLLNNFYPREAKVQWKVDNALQSGNSQESVTEQDSKDSTYSLSSTLTLSKADYEKHKVYACEVTHQGLSSPVTKSFNRGEC",,,,"24.7 relative binding, GpH7-A5/GpH7-B3/GpL16-k0 = 100","11.9 relative binding, GpH7-A5/GpH7-B3/GpL16-k0 = 100",0.48
"GpH7-A5/GpH7-B3 variant S239_08L/GpL16-k0 (antibody, human IgG1, kappa, Heterodimerized anti-glypican-3 IgG1; the mutation is in the GpH7-B3 chain only; also called He Ab) heavy 1: not shown heavy 2: not shown light: DIVMTQSPLSLPVTPGEPASISCQASESLVHSNRNTYLHWYLQKPGQSPQLLIYKVSNRFSGVPDRFSGSGSGTDFTLKISRVEAEDVGVYYCSQNTHVPPTFGQGTKVEIERTVAAPSVFIFPPSDEQLKSGTASVVCLLNNFYPREAKVQWKVDNALQSGNSQESVTEQDSKDSTYSLSSTLTLSKADYEKHKVYACEVTHQGLSSPVTKSFNRGEC",,,,"140 relative binding, GpH7-A5/GpH7-B3/GpL16-k0 = 100","95.3 relative binding, GpH7-A5/GpH7-B3/GpL16-k0 = 100",0.68
"GpH7-A5/GpH7-B3 variant P238_19Q/GpL16-k0 (antibody, human IgG1, kappa, Heterodimerized anti-glypican-3 IgG1; the mutation is in the GpH7-B3 chain only; also called He Ab) heavy 1: not shown heavy 2: not shown light: DIVMTQSPLSLPVTPGEPASISCQASESLVHSNRNTYLHWYLQKPGQSPQLLIYKVSNRFSGVPDRFSGSGSGTDFTLKISRVEAEDVGVYYCSQNTHVPPTFGQGTKVEIERTVAAPSVFIFPPSDEQLKSGTASVVCLLNNFYPREAKVQWKVDNALQSGNSQESVTEQDSKDSTYSLSSTLTLSKADYEKHKVYACEVTHQGLSSPVTKSFNRGEC",,,,"110 relative binding, GpH7-A5/GpH7-B3/GpL16-k0 = 100","55.8 relative binding, GpH7-A5/GpH7-B3/GpL16-k0 = 100",0.51
"GpH7-A5/GpH7-B3 variant S239_12R/GpL16-k0 (antibody, human IgG1, kappa, Heterodimerized anti-glypican-3 IgG1; the mutation is in the GpH7-B3 chain only; also called He Ab) heavy 1: not shown heavy 2: not shown light: DIVMTQSPLSLPVTPGEPASISCQASESLVHSNRNTYLHWYLQKPGQSPQLLIYKVSNRFSGVPDRFSGSGSGTDFTLKISRVEAEDVGVYYCSQNTHVPPTFGQGTKVEIERTVAAPSVFIFPPSDEQLKSGTASVVCLLNNFYPREAKVQWKVDNALQSGNSQESVTEQDSKDSTYSLSSTLTLSKADYEKHKVYACEVTHQGLSSPVTKSFNRGEC",,,,"39.1 relative binding, GpH7-A5/GpH7-B3/GpL16-k0 = 100","17 relative binding, GpH7-A5/GpH7-B3/GpL16-k0 = 100",0.44
"GpH7-A5/GpH7-B3 variant S239_04F/GpL16-k0 (antibody, human IgG1, kappa, Heterodimerized anti-glypican-3 IgG1; the mutation is in the GpH7-B3 chain only; also called He Ab) heavy 1: not shown heavy 2: not shown light: DIVMTQSPLSLPVTPGEPASISCQASESLVHSNRNTYLHWYLQKPGQSPQLLIYKVSNRFSGVPDRFSGSGSGTDFTLKISRVEAEDVGVYYCSQNTHVPPTFGQGTKVEIERTVAAPSVFIFPPSDEQLKSGTASVVCLLNNFYPREAKVQWKVDNALQSGNSQESVTEQDSKDSTYSLSSTLTLSKADYEKHKVYACEVTHQGLSSPVTKSFNRGEC",,,,"44.1 relative binding, GpH7-A5/GpH7-B3/GpL16-k0 = 100","25.3 relative binding, GpH7-A5/GpH7-B3/GpL16-k0 = 100",0.57
"GpH7-A5/GpH7-B3 variant P238_20W/GpL16-k0 (antibody, human IgG1, kappa, Heterodimerized anti-glypican-3 IgG1; the mutation is in the GpH7-B3 chain only; also called He Ab) heavy 1: not shown heavy 2: not shown light: DIVMTQSPLSLPVTPGEPASISCQASESLVHSNRNTYLHWYLQKPGQSPQLLIYKVSNRFSGVPDRFSGSGSGTDFTLKISRVEAEDVGVYYCSQNTHVPPTFGQGTKVEIERTVAAPSVFIFPPSDEQLKSGTASVVCLLNNFYPREAKVQWKVDNALQSGNSQESVTEQDSKDSTYSLSSTLTLSKADYEKHKVYACEVTHQGLSSPVTKSFNRGEC",,,,"123 relative binding, GpH7-A5/GpH7-B3/GpL16-k0 = 100","49.7 relative binding, GpH7-A5/GpH7-B3/GpL16-k0 = 100",0.4
"GpH7-A5/GpH7-B3 variant S239_03V/GpL16-k0 (antibody, human IgG1, kappa, Heterodimerized anti-glypican-3 IgG1; the mutation is in the GpH7-B3 chain only; also called He Ab) heavy 1: not shown heavy 2: not shown light: DIVMTQSPLSLPVTPGEPASISCQASESLVHSNRNTYLHWYLQKPGQSPQLLIYKVSNRFSGVPDRFSGSGSGTDFTLKISRVEAEDVGVYYCSQNTHVPPTFGQGTKVEIERTVAAPSVFIFPPSDEQLKSGTASVVCLLNNFYPREAKVQWKVDNALQSGNSQESVTEQDSKDSTYSLSSTLTLSKADYEKHKVYACEVTHQGLSSPVTKSFNRGEC",,,,"108 relative binding, GpH7-A5/GpH7-B3/GpL16-k0 = 100","76.6 relative binding, GpH7-A5/GpH7-B3/GpL16-k0 = 100",0.71
